Laboratory results published in paper PMC3324563 (Biochemistry, 2012).
Values joined by “and” are separate entries in the source; they are usually repeats but may differ in a detail not shown here. Identical values can stand only once. Blank lines part the entries; values can stand above or below the molecule they belong to.

B2: Methanocaldococcus jannaschii prolyl-tRNA synthetase (ProRS) (enzyme, UniProt Q58635 1-455, looked up)
chain: MEFSEWYSDILEKAEIYDVRYPIKGCGVYLPYGFKIRRYTFEIIRNLLDESGHDEALFPMLIPEDLLAKEAEHIKGFEDEVYWVTHGGKTQLDVKLALRPTSETPIYYMMKLWVKVHTDLPIKIYQIVNTFRYETKHTRPLIRLREIMTFKEAHTAHSTKEEAENQVKEAISIYKKFFDTLGIPYLISKRPEWDKFPGAEYTMAFDTIFPDGRTMQIATVHNLGQNFSKTFEIIFETPTGDKDYAYQTCYGISDRVIASIIAIHGDEKGLILPPIVAPIQVVIVPLIFKGKEDIVMEKAKEIYEKLKGKFRVHIDDRDIRPGRKFNDWEIKGVPLRIEVGPKDIENKKITLFRRDTMEKFQVDETQLMEVVEKTLNNIMENIKNRAWEKFENFITILEDINPDEIKNILSEKRGVILVPFKEEIYNEELEEKVEATILGETEYKGNKYIAIAKTY

What was measured:
[1] = target: Alexa Fluor 488-labeled Methanocaldococcus jannaschii ProRS (Methanocaldococcus jannaschii) (UniProt Q58635); experiment: fluorescence polarisation
[2] = target: Methanocaldococcus jannaschii HmdIII (Methanocaldococcus jannaschii JAL-1); experiment: SEC-MALS
[3] = target: B2; experiment: fluorescence polarisation
SEC-MALS = target: the molecule itself; experiment: SEC-MALS

Kd [1]: 1.89 µM
stoichiometry N [2]: 2 and 4
Molecule: Methanocaldococcus jannaschii HmdIII (natural protein)

binding result [3]: binds
B1: Alexafluor-labeled Methanocaldococcus jannaschii HmdII (natural protein, Methanocaldococcus jannaschii JAL-1, UniProt Q58734 1-353, looked up)
chain: MRNIRKIKVDNMKVSVYGAGNQNLYINKLNLPEKFGGEPPYGGSRMAIEFAEAGHDVVLAEPNKNIMSDDLWKKVEDAGVKVVSDDVEAAKHGEIHVLFTPFGKATFRIAKTIIEHVPENAVICNTCTVSPVVLYYSLEPILRTKRKDVGISSMHPAAVPGTPQHGHYVIGGKTTDGKELATEEQIKKAVELAKSAGKEAYVVPADVSSVVADMGSLVTAVALSGVLDYYTVGRKIINAPKKMIEQQVIMTLQTMASLVETSGIEGMVKALNPELLIRSASSMKLLDRQKDLDAALEILQNLDETLKAEVEKAEIKPTTLVAAQSLVKEIKTLIGGAAAEGAIKRSARKLFEH
modifications: Alexafluor label (AlexaFluor 488), site not stated

The remaining lines, values behind:

Molecule: B2
stoichiometry N (SEC-MALS): 2

B3: Methanocaldococcus jannaschii H2-forming N5,N10-methylene-H4MPT dehydrogenase (Hmd) (enzyme, Methanocaldococcus jannaschii JAL-1, UniProt Q58194 1-358, looked up)
chain: MKIAILGAGCYRTHAAAGITNFMRACEVAKEVGKPEIALTHSSITYGAELLHLVPDVKEVIVSDPCFAEEPGLVVIDEFDPKEVMEAHLSGNPESIMPKIREVVKAKAKELPKPPKACIHLVHPEDVGLKVTSDDREAVEGADIVITWLPKGNKQPDIIKKFADAIPEGAIVTHACTIPTTKFAKIFKDLGREDLNITSYHPGCVPEMKGQVYIAEGYASEEAVNKLYEIGKIARGKAFKMPANLIGPVCDMCSAVTATVYAGLLAYRDAVTKILGAPADFAQMMADEALTQIHNLMKEKGIANMEEALDPAALLGTADSMCFGPLAEILPTALKVLEKHKVVEEEGKTKCEIMSQKE
stoichiometry N (SEC-MALS): 2
